Columns and labels:
kidney = conditions: mouse, in vivo
[1] = system: H69 (human small cell lung carcinoma) tumours; assay: Targeted alpha therapy: tumour growth and survival, H69 tumours; type: in vivo, human tumour cells in BALB/c (nu/nu) nude mice; conditions: for Mean time to reach a tumour volume of 2000 mm^3: i.v. 2–4 MBq/0.3 nmol ^213Bi-DOTATATE or 0.3 nmol unlabelled DOTATATE (control) on three consecutive days, mean ± SD; for Median survival: follow-up 90 days after treatment
Description: (§1) All animal studies were in agreement with the Animal Welfare Committee requirements of Erasmus MC and conducted in accordance with accepted guidelines. Male 6–8-week-old BALB/c (nu/nu) nude mice were obtained from Charles River (Kißlegg, Germany). Subcutaneous tumours were established in mice by inoculation of approximately 5 × 10^6 cells (CA20948 or H69), suspended in 200 μL sterile culture medium Hanks’ balanced salt solution (HBSS) in the case of CA20948 cells. Three days after inoculation of CA20948 cells, a tumour with a tumour size ~50 mm^3 (used for the “smaller” tumour-size group) was reached, and 2 weeks after inoculation, a tumour size ~200 mm^3 (used for the “larger” tumour-size group) was reached. For H69 cells, 200 μL, containing 1/3 Matrigel and 2/3 HBSS medium (Gibco, Life Technologies), was used. The cells were injected subcutaneously (s.c.) into the right flank of the mice. One week after inoculation of tumour cells, tumours with a volume of ~50 mm^3 (used for the smaller tumour-size group) could be detected, and after 3 weeks, tumour volumes reached ~200 mm^3 (used for the larger tumour-size group). Tumour volumes were estimated using a calliper.
(§2) Tumour cells were inoculated into the right flank of the mice, and the tumours were allowed to grow until tumour volumes of approximately 50 and 200 mm^3 were reached, respectively. […] The control group (H69-bearing animals: small tumour n = 10, large tumour n = 9; CA20948-bearing animals: small tumour n = 5, large tumour n = 5) received i.v. via the tail vein three times 0.3 nmol/200 μL of unlabelled DOTATATE for three consecutive days.
(§3) All animals were followed for 90 days after treatment. The behaviour and the health status of the animals were observed daily, and the weight of the animals and the tumour volumes were monitored twice a week.

[2] = system: CA20948 (rat pancreatic tumour) tumours; assay: Targeted alpha therapy: tumour growth and survival, CA20948 tumours; type: in vivo, rat tumour cells in BALB/c (nu/nu) nude mice; conditions: for Mean time to reach a tumour volume of 2000 mm^3: i.v. 2–4 MBq/0.3 nmol ^213Bi-DOTATATE or 0.3 nmol unlabelled DOTATATE (control) on three consecutive days, mean ± SD; for Median survival: follow-up 90 days after treatment
Description: as §1, §2, §3

[3] = in the absence of L-lysine; ref manuscript in preparation; cited from earlier work
Excerpt: In patients, the maximum tolerated dose in kidney is postulated to b ...

H69 tumour-bearing mice = assay: in vivo; parameters: species or system BALB/c (nu/nu) nude mice; conditions: mouse, iv
Description: (§4) When tumour volumes reached ~120 mm^3, animals were divided into five groups with seven animals in each group for both H69 and CA20948 tumour-bearing animals. […] At 10, 30, 60 and 120 min post injection (p.i.), animals in the four groups were euthanized and tissues and organs of interest (including tumour, kidney, pancreas, spleen, liver, muscle, blood, femur, femur marrow and adrenals) were collected and counted using a gamma counter (Wallac Wizard 3, PerkinElmer, USA). […] The animals of the control group were euthanized 60 min p.i.; tissues and organs of interest were harvested and counted using a gamma counter. Data was expressed in mean percentage of total injected radioactivity per gram tissue (%IA/g) ± SD.

in vivo = assay: in vivo; parameters: species or system BALB/c (nu/nu) nude mice; conditions: BALB/c (nu/nu) nude, mouse, iv, total radioactivity
Description: as §4

[4] = system: CA20948 tumour-bearing mice; assay: in vivo; parameters: species or system BALB/c (nu/nu) nude mice; conditions: mouse, iv
Description: as §4

[5] = H69 small tumours, after treatment
[6] = 3.8 MBq/0.3 nmol/200 uL, Uptake, Adrenal
[7] = 3.8 MBq/0.3 nmol/200 uL, Uptake, Blood
[8] = 3.8 MBq/0.3 nmol/200 uL, Uptake, Femur
[9] = 3.8 MBq/0.3 nmol/200 uL, Uptake, Kidney
[10] = 3.8 MBq/0.3 nmol/200 uL, Uptake, Liver
[11] = 3.8 MBq/0.3 nmol/200 uL, Uptake, Muscle
[12] = 3.8 MBq/0.3 nmol/200 uL, Uptake, Tumour

For `C[C@@H](O)[C@H](NC(=O)[C@@H]1CSSC[C@H](NC(=O)[C@@H](Cc2ccccc2)NC(=O)CN2CCN(CC(=O)O)CCN(CC(=O)O)CCN(CC(=O)O)CC2)C(=O)N[C@@H](Cc2ccc(O)cc2)C(=O)N[C@H](Cc2c[nH]c3ccccc23)C(=O)N[C@@H](CCCCN)C(=O)N[C@@H]([C@@H](C)O)C(=O)N1)C(=O)O` [^213Bi-DOTATATE, ^213Bi-[DOTA^0, Tyr^3]-octreotate, metal not drawn], which “Kidney histology, control vs treated animals” value (kidney) is on record?
The value was “no significant differences were observed”.

What about the Tumour response ([1]; H69 large tumours) of the same molecule?
The Tumour response was “partial response”.

And the “Mean time to reach a tumour volume of 2000 mm^3” value (from here on “Mean time”) ([1]; H69 large tumours (~200 mm^3))?
The value was 110 ± 19 days.

And the “Effect on tumour volume” value ([1]; H69 large tumours, cumulative injected activity 9.4 ± 0.7 MBq)?
The value was “Shrinkage of tumours was observed”.

What about the Median survival ([1]; H69 large tumours) of the same molecule?
The Median survival was greater than 90 days.

What about the “Mean time” value ([1]; H69 small tumours (~50 mm^3)) of the same molecule?
The value was 102 ± 19 days.

And the “Animals with partial response” value [1, 5]?
Its value is “eight”.

And the “Animals with stable disease” value [1, 5]?
Its value is “two”.

What about the “Animals with no tumour regrowth until the end of the study at day 90” value ([1]; H69 small tumours, n = 10 treated) of the same molecule?
Its value is “two”.

And the Median survival ([1]; H69 small tumours)?
Its Median survival is greater than 90 days.

What about the Tumour response ([2]; CA20948 large tumours) of the same molecule?
Its Tumour response is “partial response”.

And the “Mean time” value ([2]; CA20948 large tumours (~200 mm^3))?
Its value is 77 ± 25 days.

And the Median survival ([2]; CA20948 large tumours)?
The Median survival was 70 days.

And the “Mean time” value ([2]; CA20948 small tumours (~50 mm^3))?
The value was 76 ± 15 days.

What about the “Animals with stable disease till the end of the study” value ([2]; CA20948 small tumours, after therapy) of the same molecule?
Its value is “one”.

And the “Animals with no tumour regrowth” value ([2]; CA20948 small tumours, n = 8 treated)?
Its value is “one”.

What about the Median survival ([2]; CA20948 small tumours) of the same molecule?
Its Median survival is greater than 90 days.

What about the Maximum tolerated activity [3] of the same molecule?
The Maximum tolerated activity was less than 13.1 ± 1.2 MBq.

And the “Blood clearance T1/2” value (H69 tumour-bearing mice)?
The value was 11 ± 2 min.

And the “Tumour clearance T1/2” value (H69 tumour-bearing mice)?
Its value is 2.3 ± 1.1 h.

And the “Tumour uptake T1/2” value (H69 tumour-bearing mice)?
The value was 7 ± 2 min.

What about the tissue uptake at 10 min (in vivo; 2.1 MBq/0.3 nmol/200 uL, Uptake, Kidney) of the same molecule?
The tissue uptake at 10 min was 51.5 ± 16.6 %ID/g.

And the tissue uptake at 2 h (in vivo; 2.1 MBq/0.3 nmol/200 uL, Uptakes in other organs (other than tumour and kidney))?
Its tissue uptake at 2 h is less than 2 %ID/g.

What about the tissue uptake at 2 h (in vivo; 3.8 MBq/0.3 nmol/200 uL, Uptake in all other organs (other than tumour and kidney)) of the same molecule?
The tissue uptake at 2 h was less than 2 %ID/g.

And the tissue uptake at 0.5 h (in vivo; [6])?
Its tissue uptake at 0.5 h is 2 ± 0.6 %ID/g.

And the tissue uptake at 1 h (in vivo; [6])?
The tissue uptake at 1 h was 0.9 ± 0.4 %ID/g.

And the tissue uptake at 2 h (in vivo; [6])?
The tissue uptake at 2 h was 0.7 ± 0.4 %ID/g.

What about the tissue uptake at 10 min (in vivo; [7]) of the same molecule?
Its tissue uptake at 10 min is 8.1 ± 1.8 %ID/g.

And the tissue uptake at 0.5 h (in vivo; [7])?
The tissue uptake at 0.5 h was 2.3 ± 1.1 %ID/g.

What about the tissue uptake at 1 h (in vivo; [7]) of the same molecule?
The tissue uptake at 1 h was 0.6 ± 0.2 %ID/g.

What about the tissue uptake at 2 h (in vivo; [7]) of the same molecule?
Its tissue uptake at 2 h is 0.1 ± 0.06 %ID/g.

And the tissue uptake at 0.5 h (in vivo; [8])?
The tissue uptake at 0.5 h was 1.5 ± 0.4 %ID/g.

What about the tissue uptake at 1 h (in vivo; [8]) of the same molecule?
The tissue uptake at 1 h was 1 ± 0.5 %ID/g.

What about the tissue uptake at 2 h (in vivo; [8]) of the same molecule?
The tissue uptake at 2 h was 0.4 ± 0.4 %ID/g.

And the tissue uptake at 10 min (in vivo; [9])?
Its tissue uptake at 10 min is 44 ± 9.6 %ID/g.

And the tissue uptake at 0.5 h (in vivo; [9])?
The tissue uptake at 0.5 h was 28.5 ± 3.7 %ID/g.

What about the tissue uptake at 1 h (in vivo; [9]) of the same molecule?
The tissue uptake at 1 h was 26.2 ± 2.6 %ID/g.

What about the tissue uptake at 2 h (in vivo; [9]) of the same molecule?
The tissue uptake at 2 h was 25 ± 3.8 %ID/g.

What about the tissue uptake at 0.5 h (in vivo; [10]) of the same molecule?
Its tissue uptake at 0.5 h is 0.9 ± 0.09 %ID/g.

And the tissue uptake at 1 h (in vivo; [10])?
Its tissue uptake at 1 h is 0.4 ± 0.06 %ID/g.

What about the tissue uptake at 2 h (in vivo; [10]) of the same molecule?
Its tissue uptake at 2 h is 0.3 ± 0.05 %ID/g.

What about the tissue uptake at 0.5 h (in vivo; [11]) of the same molecule?
Its tissue uptake at 0.5 h is 1.1 ± 0.2 %ID/g.

What about the tissue uptake at 1 h (in vivo; [11]) of the same molecule?
Its tissue uptake at 1 h is 1 ± 1.4 %ID/g.

And the tissue uptake at 2 h (in vivo; [11])?
The tissue uptake at 2 h was 0.5 ± 0.4 %ID/g.

What about the tissue uptake at 10 min (in vivo; 3.8 MBq/0.3 nmol/200 uL, Uptake, Pancreas) of the same molecule?
The tissue uptake at 10 min was 3.2 ± 0.3 %ID/g.

What about the tissue uptake at 10 min (in vivo; [12]) of the same molecule?
Its tissue uptake at 10 min is 7.5 ± 2.2 %ID/g.

What about the tissue uptake at 0.5 h (in vivo; [12]) of the same molecule?
The tissue uptake at 0.5 h was 9.8 ± 2.4 %ID/g.

And the tissue uptake at 1 h (in vivo; [12])?
Its tissue uptake at 1 h is 9.8 ± 2.3 %ID/g.

And the tissue uptake at 2 h (in vivo; [12])?
Its tissue uptake at 2 h is 6.8 ± 3.2 %ID/g.

And the “Blood clearance T1/2” value [4]?
Its value is 14 ± 1 min.

And the “Renal clearance T1/2” value [4]?
Its value is 10 ± 3 min.

And the “Tumour clearance T1/2” value [4]?
Its value is 2.2 ± 0.9 h.

Source: paper PMC4720616, “Influence of tumour size on the efficacy of targeted alpha therapy with ^213Bi-[DOTA^0,Tyr^3]-octreotate” (EJNMMI Research, 2016)
